Reference: patent US20260028402A1 (published 2026)
Where two headings read alike, the source gives them in different places.

Columns and labels:
[1] = molecular target: CynoCD100-His (cynomolgus monkey); experiment: ELISA
[2] = molecular target: CynoCD100-Fc (cynomolgus monkey); experiment: ELISA
[3] = molecular target: Human Semaphorin 4D/SEMA4D/CD100 Protein, Fc Tag (Acro, CD0-H5257) (human, UniProt Q92854 22-734); experiment: ELISA; last HuCD100-Fc row
[4] = molecular target: HuCD100-His (human, UniProt Q92854 22-734); experiment: ELISA; FIG. 5A
[5] = molecular target: T1, full-length mouse CD100 protein MusCD100 on cells (mouse, UniProt O09126 24-861); experiment: FACS
T1 chain: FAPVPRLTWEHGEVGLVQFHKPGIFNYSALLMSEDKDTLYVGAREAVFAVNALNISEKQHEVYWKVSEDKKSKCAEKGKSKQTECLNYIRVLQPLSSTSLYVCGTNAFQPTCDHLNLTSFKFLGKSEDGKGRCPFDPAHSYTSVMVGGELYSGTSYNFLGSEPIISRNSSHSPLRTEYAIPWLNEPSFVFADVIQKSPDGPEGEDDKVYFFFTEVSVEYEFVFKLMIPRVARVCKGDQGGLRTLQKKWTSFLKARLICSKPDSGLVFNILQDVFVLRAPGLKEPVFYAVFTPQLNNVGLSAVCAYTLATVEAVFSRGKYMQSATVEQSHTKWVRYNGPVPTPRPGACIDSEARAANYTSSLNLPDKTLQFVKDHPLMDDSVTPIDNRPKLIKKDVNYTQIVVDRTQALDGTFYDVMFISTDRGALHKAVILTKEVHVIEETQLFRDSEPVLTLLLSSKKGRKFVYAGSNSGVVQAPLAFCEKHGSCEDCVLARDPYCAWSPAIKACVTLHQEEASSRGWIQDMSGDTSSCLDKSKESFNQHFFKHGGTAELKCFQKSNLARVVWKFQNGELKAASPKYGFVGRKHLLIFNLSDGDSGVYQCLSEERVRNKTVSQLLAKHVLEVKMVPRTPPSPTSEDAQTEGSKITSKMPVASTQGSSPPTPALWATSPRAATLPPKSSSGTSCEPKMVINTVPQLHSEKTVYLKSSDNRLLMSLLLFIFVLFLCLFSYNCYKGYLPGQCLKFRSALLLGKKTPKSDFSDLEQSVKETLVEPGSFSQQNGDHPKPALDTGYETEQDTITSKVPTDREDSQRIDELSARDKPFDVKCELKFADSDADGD

[6] = molecular target: HuCD100-Fc (in-house prepared) (human, UniProt Q92854 22-734, biotinylated in the Plexin binding and blocking assays (sites not given)); experiment: FACS blocking; blocking of binding to HuPlexin-B1-HEK293
[7] = molecular target: T2, full-length human CD100 protein HuCD100 on cells (human, UniProt Q92854 22-862); experiment: FACS
[8] = molecular target: T1, full-length mouse CD100 protein …; experiment: FACS
[9] = molecular target: CynoCD100-His (cynomolgus monkey); experiment: ELISA; remark: listed apart in the source
[10] = molecular target: T2, full-length human CD100 protein HuCD100 …; experiment: FACS; remark: listed apart in the source
[11] = molecular target: T2, full-length human CD100 protein HuCD100 …; experiment: FACS; Jurkat cells
[12] = molecular target: T2, full-length human CD100 protein HuCD100 …; experiment: FACS; HuPBMC cells
[13] = molecular target: CynoCD100-HEK293 (cynomolgus monkey); experiment: FACS
[14] = molecular target: T2, full-length human CD100 protein HuCD100 …; experiment: FACS; remark: listed apart in the source
[15] = molecular target: T1, full-length mouse CD100 protein …; experiment: FACS
[16] = molecular target: T3, MusCD100-His (mouse, UniProt O09126 24-733); experiment: ELISA; FIG. 5E
T3 chain: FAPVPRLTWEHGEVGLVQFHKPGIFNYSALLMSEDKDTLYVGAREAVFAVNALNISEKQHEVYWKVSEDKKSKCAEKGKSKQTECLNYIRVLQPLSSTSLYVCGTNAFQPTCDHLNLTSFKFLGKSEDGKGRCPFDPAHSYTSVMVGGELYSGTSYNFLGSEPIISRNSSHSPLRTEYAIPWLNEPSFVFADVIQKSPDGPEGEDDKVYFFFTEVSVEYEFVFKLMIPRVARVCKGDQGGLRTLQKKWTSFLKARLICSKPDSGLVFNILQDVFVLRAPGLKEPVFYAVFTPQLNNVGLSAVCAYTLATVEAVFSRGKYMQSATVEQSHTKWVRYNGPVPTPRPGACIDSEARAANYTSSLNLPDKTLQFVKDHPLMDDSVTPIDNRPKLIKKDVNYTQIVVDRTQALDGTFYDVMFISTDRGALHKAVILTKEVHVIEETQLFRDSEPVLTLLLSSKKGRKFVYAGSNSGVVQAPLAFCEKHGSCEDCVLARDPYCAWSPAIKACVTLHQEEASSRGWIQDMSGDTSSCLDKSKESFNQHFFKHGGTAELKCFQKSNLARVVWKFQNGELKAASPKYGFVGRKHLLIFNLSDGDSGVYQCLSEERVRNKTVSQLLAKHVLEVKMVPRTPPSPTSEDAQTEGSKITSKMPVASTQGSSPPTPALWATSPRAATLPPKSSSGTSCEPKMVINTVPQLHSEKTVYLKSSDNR

EC50 [1]: 0.128 µg/mL | EC50 [2]: 0.388 µg/mL | EC50 [3]: 0.0659 µg/mL | EC50 [4]: 0.0383 nM | EC50 [5]: 0.274 nM | IC50 [6]: 3.56 nM | EC50 [7]: 0.426 nM | EC50 [8]: 0.307 nM | EC50 [9]: 0.0938 nM | EC50 [10]: 0.138 nM | EC50 [11]: 0.275 nM | EC50 [12]: 0.412 nM | EC50 [13]: 0.365 nM | EC50 [14]: 0.608 nM | EC50 [15]: 0.276 nM | EC50 [16]: 0.143 nM
B1: Pepinemab (antibody, V domains shown)
VH: QVQLVQSGAEVKKPGSSVKVSCKASGYSFSDYYMHWVRQAPGQGLEWMGQINPTTGGASYNQKFKGKATITVDKSTSTAYMELSSLRSEDTAVYYCARYYYGRHFDVWGQGTTVTVSS
VL: DIVMTQSPDSLAVSLGERATINCKASQSVDYDGDSYMNWYQQKPGQPPKLLIYAASNLESGVPDRFSGSGSGTDFTLTISSLQAEDVAVYYCQQSNEDPYTFGQGTKLEIK
